± gives the standard deviation of the averaged measurements.
tested on: Saccharomyces cerevisiae; experiment: protein stability index of tFT-peptide fusion (C-terminal peptide) (PSI (0-1 scale)); higher = more stable (slower turnover); conditions: genetic background: wild type; temperature: 30 C
Experimental: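 Multiplexed protein stability (MPS) profiling in S. cerevisiae. Random 12-aa peptides (tFT-X12 library) are fused to the C-terminus of a sfGFP-mCherry tandem fluorescent timer, after mCherry and a GGGS linker. Cells are FACS-sorted into 8 mCherry/sfGFP bins and deep-sequenced. The protein stability index (PSI) is the read-weighted bin average, scaled from 0 (unstable) to 1 (stable). Only peptides with >10 reads are reported; cells were grown at 30 °C in SC-His with glucose.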
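Note: PSI is a weighted mean of sequencing reads over stability bins, variants kept only with over 10 reads, mCherry proximal and sfGFP distal, peptide attached via GGGS linker.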

Row | Sequence | protein stability index
1 | GLRAAGCRAVGG | 0.672 ± 0.025
2 | GLRGFCGVIEFF | 0.721 ± 0.14
3 | GLRGRRRAAGRV | 0.726 ± 0.06
4 | GLRLLVLPDSWS | 0.682 ± 0.056
5 | GLSSPLPLALPV | 0.649 ± 0.023
6 | GLSVVFRIPPGS | 0.735 ± 0.043
7 | GLVLVGGGGGAV | 0.577 ± 0.051
8 | GLVWLGFWCYPL | 0.55646 ± 6.9e-05
9 | GLWAEGCGGEVV | 0.653 ± 0.0083
10 | GLWSGWGMVGCV | 0.737 ± 0.047
11 | GLYSIAGGSFGE | 0.721 ± 0.026
12 | GLYYRGPSKKER | 0.73 ± 0.02
13 | GMFDCIPPGTIP | 0.741 ± 0.094
14 | GMGESGAGMVGW | 0.727 ± 0.013
15 | GMGRGRGNANEG | 0.622 ± 0.045
16 | GMLCRAGPVRNV | 0.732 ± 0.011
17 | GMNCDMCRIRTL | 0.683 ± 0.0088
18 | GMSFNVPLWGSI | 0.69 ± 0.086
19 | GMVEVSTKTKRR | 0.719 ± 0.0092
20 | GMVSPVRIVSRR | 0.654 ± 0.024
21 | GMWFRIGHCRFA | 0.684 ± 0.058
22 | GMWGGLSPFLGQ | 0.691 ± 0.015
23 | GNDRRKNNICEI | 0.701 ± 0.034
24 | GNLPQIIYSKVQ | 0.609 ± 0.037
25 | GNPRRNLSTSSR | 0.712 ± 0.02

Row | Sequence | protein stability index
26 | GNRNGEFINTQI | 0.665 ± 0.027
27 | GNRYLCIEVTWV | 0.48 ± 0.055
28 | GPEYPFRCRRLF | 0.665 ± 0.039
29 | GPFPPCVVPSSS | 0.643 ± 0.048
30 | GPFWPGRFGFLC | 0.616 ± 0.0078
31 | GPGGPGGGWPLQ | 0.687 ± 0.024
32 | GPGSGWWVSCSL | 0.751 ± 0.04
33 | GPKGLLKATSLS | 0.659 ± 0.064
34 | GPLVQVTSYSRY | 0.691 ± 0.0077
35 | GPNRCPGRPVTP | 0.703 ± 0.032
36 | GPPFPPLPLPPP | 0.658 ± 0.079
37 | GPPHSGPIYLFP | 0.6748 ± 0.0043
38 | GPPPPPPPRPPP | 0.634 ± 0.007
39 | GPRLSGGLGGVG | 0.637 ± 0.045
40 | GPRRGRSGSGWM | 0.6499 ± 0.0057
41 | GPSKTGRPLSGT | 0.713 ± 0.026
42 | GPTPHQPRMDPR | 0.693 ± 0.011
43 | GPTRAIIFERRY | 0.741 ± 0.17
44 | GPVVHSAPRVRL | 0.686 ± 0.069
45 | GPWAGVRAEVKA | 0.6505 ± 0.0047
46 | GQGEGRGKIKKG | 0.782 ± 0.037
47 | GQPLLVCMSGFW | 0.684 ± 0.01
48 | GQSSYFRRFRVG | 0.6185 ± 0.0031
49 | GRAGQPCEGALP | 0.652 ± 0.021
50 | GRCLGREGVCGL | 0.673 ± 0.018

Row | Sequence | protein stability index
51 | GRCLSGRVVGGG | 0.7145 ± 0.0014
52 | GRCLWGRVGSVM | 0.707 ± 0.018
53 | GRCPPPSPPHPL | 0.68 ± 0.038
54 | GRCRPATLRGPG | 0.656 ± 0.012
55 | GREEDLVAPPFN | 0.715 ± 0.054
56 | GRFCGGAVSGGM | 0.634 ± 0.041
57 | GRFSHRCGGGVW | 0.622 ± 0.046
58 | GRFVAPDSHPVG | 0.682 ± 0.021
59 | GRGAGRATQSPP | 0.597 ± 0.064
60 | GRGCRGKDWWLW | 0.74 ± 0.055
61 | GRGEEKRDGGRR | 0.673 ± 0.059
62 | GRGEKKKGAKKI | 0.728 ± 0.028
63 | GRGERDIGVNQS | 0.6792 ± 0.0031
64 | GRGFGVILGGCS | 0.692 ± 0.02
65 | GRGGEGQGKRRE | 0.668 ± 0.034
66 | GRGSAVTGVYGV | 0.664 ± 0.059
67 | GRHRGNVWGAVA | 0.701 ± 0.043
68 | GRKAEAEASLFS | 0.643 ± 0.1
69 | GRKKKRREEKDT | 0.609 ± 0.027
70 | GRKKTSAGGNQE | 0.702 ± 0.11
71 | GRKLLAGPDGDI | 0.658 ± 0.039
72 | GRLSQWVPNGRA | 0.681 ± 0.076
73 | GRNAGPSLLPAL | 0.684 ± 0.038
74 | GRNDYYTRKISV | 0.728 ± 0.17
75 | GRNMQVTVQNRG | 0.735 ± 0.02

Row | Sequence | protein stability index
76 | GRPSSMCTGWKV | 0.74 ± 0.054
77 | GRPYPPHFQHPS | 0.773 ± 0.022
78 | GRRRCGGGVEVC | 0.668 ± 0.014
79 | GRSCSSWSSWGF | 0.716 ± 0.01
80 | GRSGGVGVLWGG | 0.728 ± 0.017
81 | GRSGSGGTWELG | 0.643 ± 0.039
82 | GRSHVGGCGGEG | 0.693 ± 0.035
83 | GRSRAALASHIL | 0.612 ± 0.058
84 | GRTCCGGGVGFG | 0.595 ± 0.033
85 | GRTEMNRIETTS | 0.699 ± 0.037
86 | GRVRGVEGIGKG | 0.663 ± 0.018
87 | GRVVLRISCAQI | 0.6144 ± 0.00074
88 | GRVVVKTFRDFF | 0.635 ± 0.064
89 | GSAFIRFRSSFG | 0.638 ± 0.022
90 | GSCTVLPPPGPP | 0.724 ± 0.018
91 | GSFGQLIIRYSS | 0.568 ± 0.0088
92 | GSFLGVRPGNVF | 0.828 ± 0.055
93 | GSGGGEVCGCGG | 0.681 ± 0.048
94 | GSGIFHPVDLGL | 0.688 ± 0.02
95 | GSGLEAGVRRWG | 0.67 ± 0.016
96 | GSGRGRETYIAK | 0.67947 ± 0.0002
97 | GSGRPARCVEGG | 0.644 ± 0.03
98 | GSGVGSRARRGR | 0.695 ± 0.02
99 | GSHGRLSWHVSR | 0.7008 ± 0.00074
100 | GSLEGGGSGGGW | 0.6743 ± 0.0048

Row | Sequence | protein stability index
101 | GSLFLRQHTLLR | 0.645 ± 0.0077
102 | GSLRRSHYLLRA | 0.588 ± 0.086
103 | GSLVGATVSKEC | 0.63 ± 0.083
104 | GSLWGAFFRGLL | 0.688 ± 0.04
105 | GSLWGGFFRGLL | 0.70105 ± 0.00018
106 | GSMCYRTVTNLR | 0.593 ± 0.017
107 | GSMVWVRCGLER | 0.634 ± 0.022
108 | GSNPYNRHLINI | 0.693 ± 0.02
109 | GSPALGSCSWSR | 0.627 ± 0.057
110 | GSPCPIVLICGL | 0.504 ± 0.034
111 | GSQHSPRPFFFQ | 0.72 ± 0.038
112 | GSQLFESVVVRV | 0.679 ± 0.061
113 | GSQPSQRRSSGA | 0.679 ± 0.014
114 | GSRAWERSERVR | 0.649 ± 0.084
115 | GSRIVCFWSGAG | 0.717 ± 0.011
116 | GSRLIGGFIVVG | 0.6365 ± 0.0021
117 | GSRPPPRPLFPS | 0.697 ± 0.048
118 | GSSAVGWGGVWW | 0.796 ± 0.11
119 | GSSGPCRSHVLG | 0.694 ± 0.02
120 | GSSYDSEISRQS | 0.732 ± 0.0089
121 | GSTSLILSMSPA | 0.693 ± 0.027
122 | GSVCVGGFGFFG | 0.657 ± 0.039
123 | GSVLPPPSSPPL | 0.704 ± 0.013
124 | GSWDEFGVYSRV | 0.6126 ± 0.0058
125 | GTALERMWLEIE | 0.7387 ± 0.0024

Row | Sequence | protein stability index
126 | GTLGRMVTPAAW | 0.6358 ± 0.0039
127 | GTPHSKGVGFDH | 0.655 ± 0.048
128 | GTRQWPARSDVV | 0.692 ± 0.031
129 | GTVEDVLIFYEP | 0.691 ± 0.1
130 | GTVLSVARGWCV | 0.692 ± 0.11
131 | GTWSVYSEKFVG | 0.652 ± 0.0081
132 | GVAGRRGQRDVR | 0.746 ± 0.088
133 | GVARSMAGWARC | 0.703 ± 0.035
134 | GVDCPGPKRDRK | 0.626 ± 0.011
135 | GVESRSCCVFWG | 0.72 ± 0.012
136 | GVFIGWAGYKGT | 0.661 ± 0.027
137 | GVFVVEWSGGEG | 0.586 ± 0.064
138 | GVGCVGWGSSCA | 0.673 ± 0.093
139 | GVGGGRVLLLRL | 0.614 ± 0.042
140 | GVGGGWVGCGVI | 0.764 ± 0.06
141 | GVGGVLLCCCIV | 0.573 ± 0.35
142 | GVGMWCSRLRVG | 0.5952 ± 0.00044
143 | GVGRGGSSRWLG | 0.646 ± 0.06
144 | GVGSVQRCGGGG | 0.6771 ± 0.0035
145 | GVGVWVVLGRAG | 0.644 ± 0.031
146 | GVGVWWRGVIMG | 0.615 ± 0.0095
147 | GVIFPQFDPCAL | 0.788 ± 0.056
148 | GVKSSRRSLHGS | 0.738 ± 0.037
149 | GVLGGGVFGGSV | 0.631 ± 0.077
150 | GVLIDVFGRSAV | 0.696 ± 0.029

Row | Sequence | protein stability index
151 | GVLLGSKFCQQL | 0.641 ± 0.093
152 | GVLPRPPPTEGT | 0.722 ± 0.041
153 | GVLQEYIGKKQK | 0.723 ± 0.043
154 | GVLQYPPCTYPH | 0.675 ± 0.0078
155 | GVLSLFGFNTVV | 0.71 ± 0.16
156 | GVMTGGPPGGAG | 0.642 ± 0.04
157 | GVPRNSCHYPYG | 0.6462 ± 0.0049
158 | GVPVGVDSFHGV | 0.66848 ± 4.1e-05
159 | GVRAVRSCRMQR | 0.702 ± 0.072
160 | GVRCCGLCGVGV | 0.615 ± 0.0088
161 | GVRGKDCMGGGM | 0.613 ± 0.063
162 | GVRLRNLTIITI | 0.697 ± 0.037
163 | GVRRVVKGTKGC | 0.662 ± 0.013
164 | GVSCIAEGRGGL | 0.668 ± 0.025
165 | GVSCIAEGRGGW | 0.7143 ± 0.00091
166 | GVSWMRAGFEFM | 0.779 ± 0.021
167 | GVSWSWRGCCRR | 0.7109 ± 0.0058
168 | GVVGVQTLIISN | 0.653 ± 0.043
169 | GVVGWWWVRGMG | 0.756 ± 0.023
170 | GVVIGGAGYKGT | 0.633 ± 0.058
171 | GVVSSSIFDLWS | 0.746 ± 0.12
172 | GVVVIVKYKMGV | 0.579 ± 0.031
173 | GVWLWVLGACRR | 0.657 ± 0.057
174 | GVWVRGTRRGWG | 0.741 ± 0.2
175 | GVYRGNNGSPVK | 0.689 ± 0.0086

Row | Sequence | protein stability index
176 | GWAIKGPFTLRS | 0.663 ± 0.044
177 | GWARQAADGWGG | 0.709 ± 0.089
178 | GWCGGAIIRAWD | 0.678 ± 0.039
179 | GWDRNVGWVVGR | 0.735 ± 0.044
180 | GWESCLGVTRSV | 0.69 ± 0.018
181 | GWEYMDERVNQS | 0.74 ± 0.013
182 | GWGGGEGVEGEP | 0.678 ± 0.048
183 | GWGGGGGGGAGG | 0.665 ± 0.057
184 | GWGGGGGGRGWG | 0.71 ± 0.055
185 | GWGSGSYRRRAV | 0.695 ± 0.055
186 | GWMGGFLVMSID | 0.686 ± 0.037
187 | GWNRVGDWGVCG | 0.736 ± 0.01
188 | GWRAGGTGAPSR | 0.653 ± 0.041
189 | GWRHFVLFWCGL | 0.752 ± 0.022
190 | GWSCGGVGGGLG | 0.71 ± 0.04
191 | GWSVWFGLGGVW | 0.689 ± 0.022
192 | GWTVCVFGSCGV | 0.692 ± 0.051
193 | GWWVVTLRSGLR | 0.651 ± 0.09
194 | GYCLGVGLRLLH | 0.562 ± 0.018
195 | GYRMEGRVDSGG | 0.6495 ± 0.004
196 | GYTRYYRLLQSR | 0.642 ± 0.028

From the supplement of paper PMC10724198
